PMC4734655

Target: recombinant human IL-8 (interleukin-8) (human)
Assay: SPR; Biacore; IL-8 immobilised on a CM5 chip by amine coupling (Fc2), BSA on the reference cell (Fc1); soluble recombinant Mtb proteins as analytes at 2.5, 5, 10 and 20 uM; 22 °C, PBS pH 7.4 with 0.005% P20; flow 5 ul/min; one-to-one model

Sequence of recombinant M. tuberculosis rSahH (His-tagged, from pHis-sahH) (P9WGV3 whole entry): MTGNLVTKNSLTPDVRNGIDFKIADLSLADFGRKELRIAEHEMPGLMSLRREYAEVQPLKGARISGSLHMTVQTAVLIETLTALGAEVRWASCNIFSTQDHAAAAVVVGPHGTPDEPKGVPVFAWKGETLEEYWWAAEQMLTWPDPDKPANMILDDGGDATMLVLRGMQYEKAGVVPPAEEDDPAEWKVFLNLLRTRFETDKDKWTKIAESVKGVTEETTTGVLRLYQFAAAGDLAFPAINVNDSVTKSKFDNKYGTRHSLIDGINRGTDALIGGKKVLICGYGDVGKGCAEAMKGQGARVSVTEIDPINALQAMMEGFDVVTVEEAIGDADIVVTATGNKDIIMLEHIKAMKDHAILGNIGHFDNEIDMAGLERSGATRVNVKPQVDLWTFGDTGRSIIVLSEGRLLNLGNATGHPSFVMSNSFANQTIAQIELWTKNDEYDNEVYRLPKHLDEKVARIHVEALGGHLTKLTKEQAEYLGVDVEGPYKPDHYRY

recombinant M. tuberculosis rSahH (His-tagged, from pHis-sahH) (from UniProt P9WGV3 1-495) (enzyme)
Kd: 0.714 nM
